Read-outs that look alike come from different tables or passages of the source. Peptide text beside a SMILES is read from it. Where only a bound is given, the exact number is not on record here.

The target of one experiment is T1, GIRK1/4 channel (Rattus norvegicus, UniProt P48548+P63251).
T1 construct: expressed in transfected cells; host or cells: Xenopus laevis oocytes (cRNA injection)
T1 sequence (P63251 1-501): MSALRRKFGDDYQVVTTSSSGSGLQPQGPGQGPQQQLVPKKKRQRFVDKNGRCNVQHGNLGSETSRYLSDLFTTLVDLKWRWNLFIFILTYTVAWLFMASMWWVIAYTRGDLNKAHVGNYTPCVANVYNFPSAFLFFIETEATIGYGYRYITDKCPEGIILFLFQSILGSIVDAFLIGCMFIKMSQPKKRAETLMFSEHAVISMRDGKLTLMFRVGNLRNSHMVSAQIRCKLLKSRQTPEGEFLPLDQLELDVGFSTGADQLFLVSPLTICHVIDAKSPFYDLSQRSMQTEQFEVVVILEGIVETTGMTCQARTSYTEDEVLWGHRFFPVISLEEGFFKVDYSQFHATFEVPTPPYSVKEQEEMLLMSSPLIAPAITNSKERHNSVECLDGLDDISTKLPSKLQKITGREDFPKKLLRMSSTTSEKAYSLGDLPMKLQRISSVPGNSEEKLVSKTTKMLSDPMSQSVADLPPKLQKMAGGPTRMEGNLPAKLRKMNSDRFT
T1 sequence (P48548 1-419): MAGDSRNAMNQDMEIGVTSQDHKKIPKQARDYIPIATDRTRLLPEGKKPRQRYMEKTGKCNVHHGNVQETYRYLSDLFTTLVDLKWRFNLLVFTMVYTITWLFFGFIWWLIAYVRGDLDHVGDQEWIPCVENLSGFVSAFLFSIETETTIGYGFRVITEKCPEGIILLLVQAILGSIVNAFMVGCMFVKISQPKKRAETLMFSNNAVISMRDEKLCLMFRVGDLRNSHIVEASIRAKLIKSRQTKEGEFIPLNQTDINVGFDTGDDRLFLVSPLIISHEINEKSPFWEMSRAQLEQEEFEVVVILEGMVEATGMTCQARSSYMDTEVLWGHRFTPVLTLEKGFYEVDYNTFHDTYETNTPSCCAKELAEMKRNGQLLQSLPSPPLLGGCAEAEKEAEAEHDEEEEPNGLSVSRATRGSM
Put plainly: cell-based. Particulars: for inhibition at 1 µM: read-out: inhibition of the GIRK1/4 channel.

For experiment [1], the target named is T2, ROMK1 inward-rectifier K+ channel (wild-type), P35560.
T2 chain: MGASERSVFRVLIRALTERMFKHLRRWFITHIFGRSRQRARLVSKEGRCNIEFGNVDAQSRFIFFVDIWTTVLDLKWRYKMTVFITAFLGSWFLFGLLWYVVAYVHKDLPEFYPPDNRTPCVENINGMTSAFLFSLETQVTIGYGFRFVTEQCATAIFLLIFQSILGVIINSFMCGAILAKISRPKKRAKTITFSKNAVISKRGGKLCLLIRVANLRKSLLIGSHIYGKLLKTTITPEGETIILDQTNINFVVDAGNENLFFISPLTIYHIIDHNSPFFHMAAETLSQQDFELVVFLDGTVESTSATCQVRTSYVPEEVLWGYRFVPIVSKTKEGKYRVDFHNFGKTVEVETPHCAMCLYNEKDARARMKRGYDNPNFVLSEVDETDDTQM

The target of experiment [2] is T3, ROMK1 I142L channel, P35560.
T3 chain: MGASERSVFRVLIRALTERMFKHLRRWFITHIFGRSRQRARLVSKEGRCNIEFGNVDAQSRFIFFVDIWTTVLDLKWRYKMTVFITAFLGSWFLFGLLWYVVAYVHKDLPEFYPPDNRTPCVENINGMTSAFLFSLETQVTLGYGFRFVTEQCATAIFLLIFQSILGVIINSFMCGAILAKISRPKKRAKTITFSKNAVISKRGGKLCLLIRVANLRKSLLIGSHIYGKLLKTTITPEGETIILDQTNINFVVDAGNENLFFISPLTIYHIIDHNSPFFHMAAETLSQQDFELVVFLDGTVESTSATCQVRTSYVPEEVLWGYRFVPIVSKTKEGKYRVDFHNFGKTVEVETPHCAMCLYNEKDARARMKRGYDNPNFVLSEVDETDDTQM

Experiment [3] has as its target T4, ROMK1 N124A channel, P35560.
T4 chain: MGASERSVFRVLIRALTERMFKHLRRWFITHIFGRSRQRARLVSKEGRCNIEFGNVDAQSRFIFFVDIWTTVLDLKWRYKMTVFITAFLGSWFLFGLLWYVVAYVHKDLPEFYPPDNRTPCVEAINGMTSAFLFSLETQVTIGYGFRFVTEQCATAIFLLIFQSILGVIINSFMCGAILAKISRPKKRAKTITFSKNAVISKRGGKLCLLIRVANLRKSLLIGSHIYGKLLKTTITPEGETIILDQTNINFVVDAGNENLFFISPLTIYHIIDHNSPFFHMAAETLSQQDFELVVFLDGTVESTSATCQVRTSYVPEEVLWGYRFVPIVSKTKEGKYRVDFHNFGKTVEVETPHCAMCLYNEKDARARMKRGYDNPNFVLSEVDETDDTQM

In experiment [4] the target is T5, ROMK1 G127S channel, P35560.
T5 chain: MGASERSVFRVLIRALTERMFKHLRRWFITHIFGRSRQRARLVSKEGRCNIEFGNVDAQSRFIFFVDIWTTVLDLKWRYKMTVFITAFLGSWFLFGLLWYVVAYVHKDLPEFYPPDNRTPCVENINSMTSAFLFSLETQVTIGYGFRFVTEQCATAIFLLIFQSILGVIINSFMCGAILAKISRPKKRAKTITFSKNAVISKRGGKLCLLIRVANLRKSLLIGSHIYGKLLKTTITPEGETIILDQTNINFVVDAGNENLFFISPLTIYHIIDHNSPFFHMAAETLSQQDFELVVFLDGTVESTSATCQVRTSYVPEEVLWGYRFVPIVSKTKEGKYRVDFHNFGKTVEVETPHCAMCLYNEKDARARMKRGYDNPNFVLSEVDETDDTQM

The target of experiment [5] is T6, ROMK1 F146A channel, P35560.
T6 chain: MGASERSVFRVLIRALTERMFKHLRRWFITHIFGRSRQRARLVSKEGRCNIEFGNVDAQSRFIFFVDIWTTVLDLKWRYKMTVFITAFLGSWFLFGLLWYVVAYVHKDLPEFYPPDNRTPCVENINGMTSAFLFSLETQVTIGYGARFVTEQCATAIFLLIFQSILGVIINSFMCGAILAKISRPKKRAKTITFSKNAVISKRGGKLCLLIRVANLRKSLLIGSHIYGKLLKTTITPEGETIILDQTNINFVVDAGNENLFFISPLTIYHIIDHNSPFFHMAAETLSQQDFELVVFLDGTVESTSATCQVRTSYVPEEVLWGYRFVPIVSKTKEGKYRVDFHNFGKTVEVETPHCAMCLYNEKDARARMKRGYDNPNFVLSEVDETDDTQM

The target of experiment [6] is T7, GIRK1/4 inward-rectifier K+ channel, P63251.
T7 chain 1: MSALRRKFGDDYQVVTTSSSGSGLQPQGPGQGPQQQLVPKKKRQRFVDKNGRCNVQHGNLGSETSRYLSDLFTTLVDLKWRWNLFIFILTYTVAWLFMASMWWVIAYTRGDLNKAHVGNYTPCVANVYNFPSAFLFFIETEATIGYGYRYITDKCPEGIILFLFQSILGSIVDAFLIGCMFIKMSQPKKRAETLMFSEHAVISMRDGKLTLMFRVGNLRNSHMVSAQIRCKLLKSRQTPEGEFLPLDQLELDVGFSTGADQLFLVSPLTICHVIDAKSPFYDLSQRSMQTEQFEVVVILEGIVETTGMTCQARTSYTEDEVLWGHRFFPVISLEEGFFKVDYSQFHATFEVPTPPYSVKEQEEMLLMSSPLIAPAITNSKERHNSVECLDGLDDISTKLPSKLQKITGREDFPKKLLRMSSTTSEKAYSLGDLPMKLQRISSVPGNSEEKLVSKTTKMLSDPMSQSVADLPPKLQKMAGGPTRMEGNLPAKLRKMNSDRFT
T7 chain 2: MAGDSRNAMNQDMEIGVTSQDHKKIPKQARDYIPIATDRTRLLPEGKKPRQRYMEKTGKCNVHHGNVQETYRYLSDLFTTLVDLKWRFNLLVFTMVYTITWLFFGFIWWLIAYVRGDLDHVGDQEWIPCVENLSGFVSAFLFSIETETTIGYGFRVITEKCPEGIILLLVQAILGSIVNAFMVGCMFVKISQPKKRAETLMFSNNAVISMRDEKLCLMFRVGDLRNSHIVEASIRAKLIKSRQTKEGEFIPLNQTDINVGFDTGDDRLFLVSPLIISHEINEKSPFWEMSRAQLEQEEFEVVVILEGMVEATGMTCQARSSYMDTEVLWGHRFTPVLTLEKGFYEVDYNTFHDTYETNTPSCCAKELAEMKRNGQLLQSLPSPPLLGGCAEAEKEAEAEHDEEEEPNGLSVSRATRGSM
Put plainly: cell-based or functional assay.

The target of experiment [7] is T7, GIRK1/4 inward-rectifier K+ channel, ….
For experiment [8] the target is unchanged.
The target in experiment [9] is T8, ROMK1 N171D channel, P35560.
T8 chain: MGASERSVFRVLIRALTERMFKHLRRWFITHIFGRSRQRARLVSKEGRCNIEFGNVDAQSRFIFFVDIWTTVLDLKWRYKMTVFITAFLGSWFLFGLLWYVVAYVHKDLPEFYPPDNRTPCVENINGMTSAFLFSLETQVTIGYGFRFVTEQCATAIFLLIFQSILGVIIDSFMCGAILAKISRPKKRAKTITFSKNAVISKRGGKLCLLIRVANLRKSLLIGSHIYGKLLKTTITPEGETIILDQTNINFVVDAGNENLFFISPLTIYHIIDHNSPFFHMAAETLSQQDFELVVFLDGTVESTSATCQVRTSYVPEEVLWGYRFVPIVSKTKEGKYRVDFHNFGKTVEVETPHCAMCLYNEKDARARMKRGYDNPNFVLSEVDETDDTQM

In experiment [10] the target is T7, GIRK1/4 inward-rectifier K+ channel, ….

Regarding `CC(C)C[C@@H]1NC(=O)[C@H](C)NC(=O)[C@H]([C@@H](C)O)NC(=O)[C@H](CCC(=O)O)NC(=O)[C@@H]2CCCN2C(=O)[C@H](C)NC(=O)[C@H](CCCCN)NC(=O)[C@@H]2CSSC[C@@H](C(=O)N[C@@H](CCC(N)=O)C(=O)N[C@@H](CCC(N)=O)C(=O)N[C@@H](Cc3cnc[nH]3)C(N)=O)NC(=O)[C@H](CCCNC(=N)N)NC(=O)[C@H](CCCNC(=N)N)NC(=O)[C@H](C)NC(=O)[C@H](CSSC[C@H](N)C(=O)N[C@@H](CC(N)=O)C(=O)N2)NC1=O` [apamin], the Kd at GIRK1/4 channel (GIRK1/4, read-out: affinity of the channel (Kd)) is more than 1000 nM. The inhibition at 1 µM at GIRK1/4 channel (at 1 μM concentration) lay in the range of 20 to 30%.
Turning to `CC[C@H](C)[C@H](N)C(=O)N[C@@H](CCCCN)C(=O)N[C@H]1CSSC[C@@H]2NC(=O)[C@H]([C@@H](C)CC)NC(=O)[C@H](Cc3c[nH]cn3)NC(=O)[C@@H]3CCCN3C(=O)[C@H](CCCCN)NC(=O)[C@H]([C@@H](C)CC)NC(=O)[C@H](C(C)C)NC(=O)[C@H](Cc3c[nH]cn3)NC(=O)[C@H](CCCNC(=N)N)NC(=O)[C@H](CCCCN)NC(=O)[C@H](CSSC[C@@H](C(=O)NCC(=O)N[C@@H](CCCCN)C(=O)N[C@@H](CC(N)=O)C(N)=O)NC(=O)[C@H]([C@@H](C)CC)NC(=O)[C@H](CCCCN)NC(=O)[C@H](CCCNC(=N)N)NC2=O)NC(=O)[C@H](CC(N)=O)NC1=O` [MCDP, mast cell degranulating peptide] (HELM PEPTIDE1{I.K.C.N.C.K.R.H.V.I.K.P.H.I.C.R.K.I.C.G.K.N.[am]}$PEPTIDE1,PEPTIDE1,3:R3-15:R3|PEPTIDE1,PEPTIDE1,5:R3-19:R3$$$V2.0; N-terminus and C-terminus assumed; bridges inferred), on GIRK1/4 channel, the “effect on / sensitivity of the GIRK1/4 channel, in words” value is given as “do not inhibit the activity” and the inhibition at 1 µM is 20 to 30%.
As to ALCNCNRIIIPHMCWKKCGKK (modifications not checked) [synthetic tertiapin], the Kd in experiment [1] is 2 nM; in [3], 13.9 nM; in experiment [4] it was 2.7 nM; in experiment [5] it was 65.2 nM; in experiment [7], 8.6 nM; in experiment [8], 8 nM. Further, the Kd in experiment [9] was 1.5 nM. In experiment [2], this molecule came in with a fold lower affinity than the wild-type ROMK1 channel of 8 fold. Also, the inhibition of the GIRK1/4 current at 10 nM in [6] came out at 50%.
ALCNCNRIIIPHMCWKKCGKK (modifications not checked) [native tertiapin] returned an equilibrium dissociation constant (Kd) in experiment [7] of 8.2 nM.
Consider CNCKAPETALCARRCQQH (modifications not checked) [apamin, P01500 28-45], for which the fold lower affinity than for tertiapin in experiment [8] was more than 100 fold. Also, the Kd in [10] is more than 1000 nM.
The matching figures for IKCNCKRHVIKPHICRKICGKN (modifications not checked) [mast cell degranulating peptide, P01499 28-49]: more than 100 fold and more than 1000 nM.

By Kd is commonly meant a measure of binding affinity in units of concentration.

Source of the values: patent US6979572B1, “Compositions and methods for inhibiting inward-rectifier potassium channels” (Trustees of the University of Pennsylvania, priority 1998, dated 2005).
